Data taken from publication PMC4302019.

Biological target: SibV (predicted extradiol dioxygenase of sibiromycin biosynthesis), holo form reconstituted with Fe2+ (Streptosporangium sibiricum)
Assay: SEC

For “SibV (predicted extradiol dioxygenase of sibiromycin biosynthesis), holo form reconstituted with Fe2+ (enzyme)”, the stoichiometry N was 2.
